In the supplement of paper PMC7125110:
± gives the standard error. For part of these data: This sample holds only a part of the variants without activity.

B1: glmS ribozyme (parent)
chain: AUAAAAGCGCCAGAACUACAGAAAUGUAGUUGACGAGGAGGAGGUUUAUCGAAUUUUCGGCGGAUGCCUCCAAA

What was measured:
Conditions in all cases: with glucosamine-6-phosphate
glucosamine-6-phosphate [1] = variants of: B1; test: kcat; higher = faster cleavage; RNA array
Method in brief: (§1)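 The measurements used barcoded ribozyme variants on sequenced MiSeq chips, transcribed in situ by E. coli RNA polymerase and tracked at 37 °C with a hybridised Cy3 probe. Glucosamine-6-phosphate, 40 μM to 10 mM in HEPES/KCl/Mg(OAc)2 buffer, was flowed in while tiles were imaged over ~14 h. Baseline-normalised signals, also normalised to non-cleaving reference variants, gave per-tile medians that were fit to one- or two-exponential decays for kobs. kcat and KM resulted from weighted Michaelis–Menten fits across concentrations.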

glucosamine-6-phosphate [2] = variants of: B1; test: self-cleavage kobs at 640 uM GlcN6P; higher = faster cleavage; RNA array
Method in brief: as §1

glucosamine-6-phosphate [3] = variants of: B1; test: self-cleavage kobs at 40 uM GlcN6P; higher = faster cleavage; RNA array
Method in brief: as §1

glucosamine-6-phosphate [4] = variants of: B1; test: self-cleavage kobs at 160 uM GlcN6P; higher = faster cleavage; RNA array
Method in brief: as §1

glucosamine-6-phosphate [5] = variants of: B1; test: self-cleavage kobs at 2500 uM GlcN6P; higher = faster cleavage; RNA array
Method in brief: as §1

glucosamine-6-phosphate [6] = variants of: B1; test: self-cleavage kobs at 10000 uM GlcN6P; higher = faster cleavage; RNA array
Method in brief: as §1

glucosamine-6-phosphate [7] = variants of: B1; test: KM; higher = weaker cofactor use; RNA array
Method in brief: as §1

| Variant | kcat (glucosamine-6-phosphate [1]) [s⁻¹] | self-cleavage kobs at 640 uM GlcN6P (glucosamine-6-phosphate [2]) [s⁻¹] | self-cleavage kobs at 40 uM GlcN6P (glucosamine-6-phosphate [3]) [s⁻¹] | self-cleavage kobs at 160 uM GlcN6P (glucosamine-6-phosphate [4]) [s⁻¹] | self-cleavage kobs at 2500 uM GlcN6P (glucosamine-6-phosphate [5]) [s⁻¹] | self-cleavage kobs at 10000 uM GlcN6P (glucosamine-6-phosphate [6]) [s⁻¹] | KM (glucosamine-6-phosphate [7]) [µM] |
| --- | --- | --- | --- | --- | --- | --- | --- |
| C10A C58U | < 1e-05 | < 1e-05 |  |  |  |  |  |
| A39G U45G | 0.0109 ± 0.0044 | 0.00416 ± 0.00099 | 0.00047 ± 6.3e-05 | 0.00207 ± 0.00047 | 0.00467 ± 0.0013 | 0.0173 ± 0.0023 |  |
| U46C U47G | 0.0024 ± 0.00028 | 0.000457 ± 8e-05 | 3.18e-05 ± 8e-06 | 0.00015 ± 2.6e-05 | 0.0014 ± 0.00026 | 0.00183 ± 0.00026 | 2600 ± 440 |
| C16A A42C | < 1e-05 |  | < 1e-05 | < 1e-05 | < 1e-05 | < 1e-05 |  |
| U47C A64U | 0.000108 ± 8.5e-06 | 7.89e-05 ± 1.8e-05 |  |  | 9.46e-05 ± 2.2e-05 | 0.000102 ± 1.2e-05 | 363 ± 170 |
| A12U A53C | 0.0145 ± 0.006 | 0.0051 ± 0.0014 | 0.000569 ± 7.4e-05 |  | 0.00439 ± 0.0022 | 0.0183 ± 0.0027 |  |
| A14U G44A | 6.83e-05 ± 2.6e-06 |  |  | < 1e-05 | 3.21e-05 ± 6.8e-06 | 5.38e-05 ± 6.7e-06 | 2730 ± 310 |
| A39C C67U | 0.000495 ± 9.5e-05 | 0.000154 ± 1.3e-05 | 3.13e-05 ± 7.5e-06 | 7.1e-05 ± 8.8e-06 | 0.000377 ± 3.5e-05 | 0.000443 ± 5.1e-05 | 1150 ± 400 |
| G13A A39G C61G C70A | < 1e-05 |  |  |  |  |  |  |
| G32A G60U | < 1e-05 |  |  | < 1e-05 |  | < 1e-05 |  |
| C16U C61U | 1.75e-05 ± 1.4e-06 |  |  |  |  |  |  |
| A14C G37C | < 1e-05 | < 1e-05 | < 1e-05 |  |  | < 1e-05 |  |
| G40C A64G | 0.00107 ± 0.00027 |  |  | 4.29e-05 ± 1.9e-05 | 0.000837 ± 0.00017 | 0.000811 ± 9.3e-05 |  |
| U55C C58G | 0.000215 ± 1.3e-05 |  |  |  | 3.85e-05 ± 1.1e-05 | 9.91e-05 ± 1.2e-05 |  |
| A12G G66U C67U | 8.1e-05 ± 2.4e-06 |  | < 1e-05 |  | 4.93e-05 ± 2.1e-05 |  | 1610 ± 110 |
| U31G U46A | 0.000771 ± 0.00021 | 0.000258 ± 6.7e-05 |  | 0.000124 ± 3.6e-05 | 0.000954 ± 0.00016 | 0.000614 ± 0.0001 |  |
| U45C U56C | 0.000492 ± 4.3e-05 | 5.37e-05 ± 1.2e-05 |  |  | 0.000149 ± 3e-05 | 0.000319 ± 4.5e-05 | 5500 ± 810 |
